Assay results reported in patent publication US20240279281A1, “Peptide Inhibitors of Interleukin-23 Receptor” (Janssen Pharmaceutica NV, priority 2023, published 2024).
One block for each binder: values may come before it. Starred links: 1 amine or outer side, 2 acyl side, 3 side chain; linkers in the order of their positions; H or OH if unused. Positions of bridges follow the written chain, without caps; N, C: chain ends. Non-standard residues stand in square brackets, D forms with d. No end group written: not given here. X7 = 2‑amino‑3‑(5-methylpyridin-3-yl)propanoic acid, Cc1cncc(CC(N[*:1])C(=O)[*:2])c1; Phe(4-OMe) = COc1ccc(C[C@H](N[*:1])C(=O)[*:2])cc1; Trp(7-Br) = N[C@@H](Cc1c[nH]c2c(Br)cccc12)C(=O)O; 2Nal(6-OH) = N[C@@H](Cc1ccc2cc(O)ccc2c1)C(=O)O; Trp(7-Me) = Cc1cccc2c(C[C@H](N)C(=O)O)c[nH]c12; dLys(Me3) = C[N+](C)(C)CCCC[C@@H](N)C(=O)O; AEF = NCCOc1ccc(C[C@H](N)C(=O)O)cc1; 3Pal = N[C@@H](Cc1cccnc1)C(=O)O; Aad = N[C@@H](CCCC(=O)O)C(=O)O; Pen = CC(C)(S)[C@H](N)C(=O)O; αMeK = C[C@](N)(CCCCN)C(=O)O; αMeC = C[C@](N)(CS)C(=O)O; lipid = not defined here; Thp = NC1(C(=O)O)CCOCC1; PEG = not defined here; Sar = CNCC(=O)O

Biological target: T1, interleukin-23 receptor (IL-23R), Q5VWK5
T1 chain: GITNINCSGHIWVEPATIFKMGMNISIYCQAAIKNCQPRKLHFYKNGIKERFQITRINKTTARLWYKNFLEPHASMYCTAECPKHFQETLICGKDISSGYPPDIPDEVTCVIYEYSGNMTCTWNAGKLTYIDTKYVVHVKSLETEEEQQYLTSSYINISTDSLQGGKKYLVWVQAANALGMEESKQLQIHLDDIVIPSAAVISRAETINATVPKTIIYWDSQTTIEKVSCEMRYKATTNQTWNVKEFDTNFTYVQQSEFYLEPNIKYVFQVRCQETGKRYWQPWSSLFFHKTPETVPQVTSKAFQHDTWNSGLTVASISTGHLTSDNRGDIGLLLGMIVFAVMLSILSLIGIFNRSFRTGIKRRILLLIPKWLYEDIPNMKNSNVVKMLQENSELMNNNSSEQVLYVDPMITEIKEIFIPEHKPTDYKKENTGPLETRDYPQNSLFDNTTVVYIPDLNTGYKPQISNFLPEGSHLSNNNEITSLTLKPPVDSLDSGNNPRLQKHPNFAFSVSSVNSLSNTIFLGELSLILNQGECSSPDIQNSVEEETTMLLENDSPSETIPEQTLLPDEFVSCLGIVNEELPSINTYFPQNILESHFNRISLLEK
Experiment: cell-based or functional assay

Binder: [Pen]NT[Trp(7-Me)]K(Ac)[Pen][2‑amino‑3‑(4-(2-aminoethoxy)phenyl)propanoic acid][2‑amino‑3‑(6-hydroxynaphthalen-2-yl)propanoic acid][Thp]EN[3Pal][Sar] (not fully specified (bridges); ends and bridges not checked) [SEQ ID NO: 379]
IL23R Reporter Assay IC50: < 10 nM

Binder: [Pen]NT[Trp(7-Me)]K(Ac)[Pen][Phe(4-OMe)][2Nal(6-OH)][αMeK]LN[3Pal][Sar] (not fully specified (bridges); ends and bridges not checked) [SEQ ID NO: 308]
IL23R Reporter Assay IC50: < 10 nM

Binder: [Pen]NT[Trp(7-Me)]K(Ac)[Pen][AEF][2Nal(6-OH)][Thp]EN[3Pal][Sar] (not fully specified (bridges); ends and bridges not checked) [SEQ ID NO: 347]
IL23R Reporter Assay IC50: < 10 nM
PBMC pSTAT3 IC50: < 0.1 nM

Binder: [dLys(Me3)][Pen]NT[Trp(7-Me)]K(Ac)[Pen][2‑amino‑3‑(4-(2-aminoethoxy)phenyl)propanoic acid][2‑amino‑3‑(6-hydroxynaphthalen-2-yl)propanoic acid][Thp]EN[3Pal][Sar] (not fully specified (bridges); ends and bridges not checked) [SEQ ID NO: 388]
IL23R Reporter Assay IC50: < 10 nM
PBMC pSTAT3 IC50: < 10 pM

Binder: CNT[Trp(7-Me)]K(Ac)[αMeC][2‑amino‑3‑(4-(2-aminoethoxy)phenyl)propanoic acid][2‑amino‑3‑(6-hydroxynaphthalen-2-yl)propanoic acid][Thp]K(Ac)N[3Pal][Sar] (ends and bridges not checked) [SEQ ID NO: 5]
IL23R Reporter Assay IC50: < 10 nM
PBMC pSTAT3 IC50: < 10 pM

Binder: [Pen]NT[2‑amino‑3‑(benzo(b)thiophen-3-yl)propanoic acid]K(Ac)[Pen][AEF][2Nal(6-OH)][Thp]EN[3Pal][Sar] (not fully specified (bridges); ends and bridges not checked) [SEQ ID NO: 334]
IL23R Reporter Assay IC50: < 10 nM

B2: SEQ ID NO: 326 (peptide)
peptide: [Pen]ET[Trp(7-Me)]K(PEG)[Pen][AEF][2Nal(6-OH)][Thp]EN[3Pal][Sar]
modifications: not fully specified (bridges); ends and bridges not checked; also: PEG chain on Lys unspecified
IL23R Reporter Assay IC50: < 10 nM

Binder: [(R)‑3‑carboxy‑2‑(4-(((R)-5-carboxy-5-hydrazineylpentyl)amino)-4-oxobutanamido)‑N,N,N‑trimethylpropan‑1‑aminium][Pen]NT[Trp(7-Me)]K(Ac)[Pen][AEF][2Nal(6-OH)][Thp]EN[3Pal][Sar] (not fully specified (bridges); ends and bridges not checked) [SEQ ID NO: 340]
IL23R Reporter Assay IC50: < 10 nM
PBMC pSTAT3 IC50: < 10 pM

Binder: [Pen]ET[Trp(7-Me)]K(Ac)[Pen][AEF][2Nal(6-OH)][Thp]EN[3Pal][Sar] (not fully specified (bridges); ends and bridges not checked) [SEQ ID NO: 331]
IL23R Reporter Assay IC50: < 10 nM

Binder: [Pen]ET[Trp(7-Me)][N,N,N‑trimethylhomolysine][Pen][2‑amino‑3‑(4-(2-(methylamino)ethoxy)phenyl)propanoic acid][2‑amino‑3‑(6-hydroxynaphthalen-2-yl)propanoic acid][Thp]EN[3Pal][Sar] (not fully specified (bridges); ends and bridges not checked) [SEQ ID NO: 382]
IL23R Reporter Assay IC50: < 10 nM
PBMC pSTAT3 IC50: < 10 pM

Now from value to binder:

IL23R Reporter Assay IC50: < 10 nM
Binder: R[Pen]NT[Trp(7-Br)]K(Ac)[Pen][AEF][2Nal(6-OH)][Thp]EN[3Pal][Sar] (not fully specified (bridges); ends and bridges not checked) [SEQ ID NO: 312]

IL23R Reporter Assay IC50: < 10 nM
Binder: K[Pen]NT[Trp(7-Me)]K[Pen][AEF][2Nal(6-OH)][Thp][Aad]N[3Pal][Sar] (not fully specified (residue 6, bridges); ends and bridges not checked) [SEQ ID NO: 348]

IL23R Reporter Assay IC50: < 10 nM
PBMC pSTAT3 IC50: < 10 pM
Binder: [Pen]NT[Trp(7-Me)]K(Ac)[Pen][2‑amino‑3‑(4-(2-aminoethoxy)phenyl)propanoic acid][2‑amino‑3‑(6-hydroxynaphthalen-2-yl)propanoic acid][Thp]EN[3Pal][Sar] (not fully specified (bridges); ends and bridges not checked) [SEQ ID NO: 378]

IL23R Reporter Assay IC50: < 10 nM
Binder: [Pen]NT[Trp(7-Br)]K(Ac)[Pen][AEF][2Nal(6-OH)][Thp]EN[3Pal][Sar] (not fully specified (bridges); ends and bridges not checked) [SEQ ID NO: 313]

IL23R Reporter Assay IC50: < 10 nM
PBMC pSTAT3 IC50: < 10 pM
Binder: [Pen]ET[Trp(7-Me)]K(Ac)[Pen][2‑amino‑3‑(4-(2-aminoethoxy)phenyl)propanoic acid][2‑amino‑3‑(6-hydroxynaphthalen-2-yl)propanoic acid][Thp]EN[3Pal][Sar] (not fully specified (bridges); ends and bridges not checked) [SEQ ID NO: 372]

IL23R Reporter Assay IC50: < 10 nM
Binder: [Pen]NT[Trp(7-Me)]K(Ac)[Pen][2‑amino‑3‑(4-(2-aminoethoxy)phenyl)propanoic acid][2‑amino‑3‑(6-hydroxynaphthalen-2-yl)propanoic acid][Thp]EN[3Pal][Sar] (not fully specified (bridges); ends and bridges not checked) [SEQ ID NO: 380]

IL23R Reporter Assay IC50: < 10 nM
B1: SEQ ID NO: 307 (peptide)
peptide: [Pen]NT[Trp(7-Me)]K(lipid)[Pen][Phe(4-OMe)][2Nal(6-OH)][αMeK]LN[3Pal][Sar]
modifications: not fully specified (bridges); ends and bridges not checked; also: lipid group unspecified

IL23R Reporter Assay IC50: < 10 nM
Binder: R[Pen]NT[Trp(7-Me)]K(Ac)[Pen][5‑(4-(2-amino-2-carboxyethyl)phenoxy)‑N,N,N‑trimethylpentan‑1‑aminium][2‑amino‑3‑(6-hydroxynaphthalen-2-yl)propanoic acid][Thp]EN[X7][Sar] (disulfide 2-7 (inferred); ends not checked) [SEQ ID NO: 48]
